From patent publication US20240141043A1 come the findings set out here.

The target of test [1] is murine CD19 (mouse) (UniProt P25918). The experiment in a line: flow cytometry of mouse peripheral blood, Day 1 after i.v. injection of 50 ug anti-murine CD19-FITC, no CD19-FITC in master mix (injected antibody only) [CONT'D) D].
For test [2] the target is unchanged. The experiment in a line: flow cytometry of mouse peripheral blood, Day 8 after i.v. injection of 50 ug anti-murine CD19-FITC, no CD19-FITC in master mix (injected antibody only) [CONT'D) D]. On the technique in general: In flow cytometry, cells or beads pass a laser one at a time.
Test [3] shares this target. Briefly: flow cytometry of mouse peripheral blood, 4hrs after i.v. injection of 50 ug anti-murine CD19-FITC, no CD19-FITC in master mix (injected antibody only) [CONT'D) D].
For test [4] the target is unchanged. Briefly: flow cytometry of mouse peripheral blood, Day 8 after i.v. injection of 50 ug anti-murine CD19-FITC, CD19-FITC in master mix [CONT'D) D].
For test [5] the target is unchanged. Briefly: flow cytometry of mouse peripheral blood, 4hrs after i.v. injection of 50 ug anti-murine CD19-FITC, CD19-FITC in master mix [CONT'D) D].
Test [6] shares this target. Briefly: flow cytometry of mouse peripheral blood, Day 1 after i.v. injection of 50 ug anti-murine CD19-FITC, CD19-FITC in master mix [CONT'D) D].
The target is the same in test [7]. Briefly: flow cytometry of mouse peripheral blood, Day 5 after i.v. injection of 50 ug anti-murine CD19-FITC, no CD19-FITC in master mix (injected antibody only) [CONT'D) D].
For test [8] the target is unchanged. The experiment in a line: flow cytometry of mouse peripheral blood, Day 5 after i.v. injection of 50 ug anti-murine CD19-FITC, CD19-FITC in master mix [CONT'D) D].

Chain of murine CD19 (mouse) (P25918 19-547): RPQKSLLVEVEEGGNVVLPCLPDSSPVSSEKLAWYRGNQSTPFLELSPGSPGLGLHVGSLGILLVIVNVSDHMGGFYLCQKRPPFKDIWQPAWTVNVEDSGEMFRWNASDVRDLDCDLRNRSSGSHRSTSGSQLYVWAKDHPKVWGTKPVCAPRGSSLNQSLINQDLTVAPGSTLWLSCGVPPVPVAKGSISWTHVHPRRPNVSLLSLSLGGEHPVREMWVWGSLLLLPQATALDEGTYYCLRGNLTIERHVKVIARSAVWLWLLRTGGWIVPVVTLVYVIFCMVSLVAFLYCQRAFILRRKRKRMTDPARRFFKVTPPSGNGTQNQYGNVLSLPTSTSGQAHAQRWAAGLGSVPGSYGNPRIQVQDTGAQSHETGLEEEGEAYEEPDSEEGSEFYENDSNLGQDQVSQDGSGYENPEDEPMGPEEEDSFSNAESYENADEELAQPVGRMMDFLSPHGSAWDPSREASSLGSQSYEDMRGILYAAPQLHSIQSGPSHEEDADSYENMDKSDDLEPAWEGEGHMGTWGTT

In the case of “anti-murine CD19-FITC antibody (Biolegend; clone 1D3)”, the CD19+CD20+ gate (share of cells in the gate) with murine CD19 (mouse) [1] was 49.1; in the test with murine CD19 (mouse) [2], 38.3; with murine CD19 (mouse) [3], 52.7; in the test with murine CD19 (mouse) [4], 36.4; with murine CD19 (mouse) [5], 53; in the test with murine CD19 (mouse) [6] it was 52.3. Further, the CD19+CD20+ gate (share of cells in the gate) in the test with murine CD19 (mouse) [7] was 44; in the test with murine CD19 (mouse) [8], 43.6.
